Measured values from patent publication US20160002326A1 (AbbVie / Abbott, published 2016).

What was measured:
[1] = target: T1, Fcγ RI (UniProt P12314 16-288, limits assumed); experiment: Biacore
T1 construct: also called FcγR1

[2] = target: T2, Fcγ RIIa, variant 131H (UniProt P12318 36-218, limits assumed); experiment: Biacore
T2 construct: also called FcγRIIa 131H
T2 sequence (looked up): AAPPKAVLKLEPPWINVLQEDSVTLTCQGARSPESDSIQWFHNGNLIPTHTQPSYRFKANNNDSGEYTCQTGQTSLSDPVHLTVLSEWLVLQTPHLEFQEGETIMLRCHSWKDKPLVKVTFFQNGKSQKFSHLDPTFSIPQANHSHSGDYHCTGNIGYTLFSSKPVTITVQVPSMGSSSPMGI

[3] = target: T3, Fcγ RIIa, variant 131R (UniProt P12318 36-218, limits assumed); experiment: Biacore
T3 construct: also called FcγRIIa 131R
T3 sequence (looked up): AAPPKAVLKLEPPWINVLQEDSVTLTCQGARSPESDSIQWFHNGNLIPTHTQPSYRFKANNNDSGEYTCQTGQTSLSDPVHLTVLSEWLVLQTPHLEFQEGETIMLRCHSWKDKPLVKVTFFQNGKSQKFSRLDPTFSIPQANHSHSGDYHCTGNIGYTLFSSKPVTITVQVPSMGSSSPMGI

[4] = target: T4, Fcγ RIIb (UniProt P31994 46-217, limits assumed); experiment: Biacore
T4 sequence (looked up): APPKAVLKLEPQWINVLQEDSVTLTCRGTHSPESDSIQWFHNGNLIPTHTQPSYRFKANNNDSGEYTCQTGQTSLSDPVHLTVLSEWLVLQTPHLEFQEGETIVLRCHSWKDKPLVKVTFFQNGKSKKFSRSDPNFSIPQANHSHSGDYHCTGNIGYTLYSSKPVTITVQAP

[5] = target: T5, Fcγ RIIIa, variant 158F (UniProt P08637 17-208); experiment: Biacore
T5 construct: also called FcγRIIIa 158F
T5 sequence (P08637 17-208 limits assumed, change not shown): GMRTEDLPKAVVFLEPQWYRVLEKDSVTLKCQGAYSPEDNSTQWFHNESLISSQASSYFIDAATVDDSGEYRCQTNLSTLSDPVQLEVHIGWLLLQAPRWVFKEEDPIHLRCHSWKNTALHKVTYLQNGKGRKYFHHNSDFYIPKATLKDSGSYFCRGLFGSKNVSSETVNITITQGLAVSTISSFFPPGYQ

[6] = target: T6, human TNF-α (human, UniProt P01375 77-233); experiment: Biacore SPR, recombinant antigen, mean of 3 experiments
T6 construct: also called hTNF-α; hTNF
T6 sequence (P01375 77-233 limits assumed): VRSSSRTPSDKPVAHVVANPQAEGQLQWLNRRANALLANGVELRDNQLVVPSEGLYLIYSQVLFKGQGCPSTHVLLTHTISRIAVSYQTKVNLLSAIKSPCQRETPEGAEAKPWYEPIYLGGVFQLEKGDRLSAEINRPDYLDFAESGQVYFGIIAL
Excerpt: (§1) The apparent association rate (ka) and dissociation rate (kd) were derived and used to calculate the overall equilibrium dissociation constant (KD) for the interaction.

[7] = target: T7, human IL-17A/A homodimer (human, UniProt Q16552 24-155); experiment: as above
T7 construct: also called hIL-17A/A
T7 sequence: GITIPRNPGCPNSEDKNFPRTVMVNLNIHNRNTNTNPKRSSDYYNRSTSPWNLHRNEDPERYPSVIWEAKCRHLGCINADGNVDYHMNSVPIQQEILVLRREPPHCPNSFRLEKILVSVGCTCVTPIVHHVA
Excerpt: as §1

[8] = target: T8, human IL-17A/F heterodimer (human, UniProt Q16552 24-155; Q96PD4 31-163); experiment: as above
T8 construct: also called hIL-17A/F
T8 sequence 1: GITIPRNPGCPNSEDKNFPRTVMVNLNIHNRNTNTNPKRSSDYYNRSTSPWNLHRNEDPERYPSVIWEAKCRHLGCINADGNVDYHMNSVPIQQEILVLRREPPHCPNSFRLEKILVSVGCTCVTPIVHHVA
T8 sequence 2: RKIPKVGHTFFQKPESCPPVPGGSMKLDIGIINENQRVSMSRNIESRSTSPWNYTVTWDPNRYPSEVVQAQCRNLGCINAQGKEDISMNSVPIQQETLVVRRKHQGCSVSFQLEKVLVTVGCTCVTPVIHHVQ
Excerpt: as §1

[9] = target: T9, monkey (Rhesus/Cynomolgus) TNF (monkey (Rhesus/Cynomolgus), UniProt P48094 77-233); experiment: Biacore SPR, 3 experiments; unit not printed in Table 10
T9 construct: also called monkey TNF; monkey rTNF
T9 sequence (P48094 77-233 limits assumed): as the sequence (P01375 77-233 limits assumed) above, with R44T, T72N, R138L counted along it

[10] = target: T10, monkey (Rhesus/Cynomolgus) IL-17 (monkey (Rhesus/Cynomolgus), UniProt F6T3G5 24-155); experiment: as above
T10 construct: also called monkey IL-17; monkey rIL-17
T10 sequence: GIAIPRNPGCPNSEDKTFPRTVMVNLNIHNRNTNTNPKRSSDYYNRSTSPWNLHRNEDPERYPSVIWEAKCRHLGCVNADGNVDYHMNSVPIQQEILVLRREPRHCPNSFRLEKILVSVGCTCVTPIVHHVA

[11] = target: T11, mouse IL-17 (mouse, UniProt Q62386 26-158, limits assumed); experiment: as above
T11 construct: also called mouse IL-17A; rodent IL-17 (mouse)
T11 sequence (looked up): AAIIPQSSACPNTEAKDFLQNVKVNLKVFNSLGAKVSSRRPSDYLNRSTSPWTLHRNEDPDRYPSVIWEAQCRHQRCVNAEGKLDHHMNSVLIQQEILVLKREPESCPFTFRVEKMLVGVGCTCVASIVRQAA

[12] = target: T12, rat IL-17 (rat, UniProt Q61453 18-150, limits assumed); experiment: as above
T12 construct: also called rodent IL-17 (rat)
T12 sequence (looked up): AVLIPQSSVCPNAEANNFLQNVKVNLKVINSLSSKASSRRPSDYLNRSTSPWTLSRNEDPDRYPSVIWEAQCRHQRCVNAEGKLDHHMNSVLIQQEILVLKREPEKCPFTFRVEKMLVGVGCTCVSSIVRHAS

[13] = target: T6, human TNF-α; experiment: Biacore SPR, 3 experiments; same value as Table 7; unit not printed in Table 10
Excerpt: as §1

[14] = target: T7, human IL-17A/A homodimer; experiment: as above
Excerpt: as §1

T1 sequence (P12314 16-288 limits assumed): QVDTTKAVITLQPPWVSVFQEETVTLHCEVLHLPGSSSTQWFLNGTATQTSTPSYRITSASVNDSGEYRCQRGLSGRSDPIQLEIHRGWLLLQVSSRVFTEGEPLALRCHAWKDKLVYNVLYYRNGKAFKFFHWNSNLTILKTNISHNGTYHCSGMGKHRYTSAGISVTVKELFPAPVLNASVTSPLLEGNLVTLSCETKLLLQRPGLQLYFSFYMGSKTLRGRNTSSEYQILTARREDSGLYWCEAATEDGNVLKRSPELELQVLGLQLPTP

B1: ABBV-257 anti-human TNF and IL-17 DVD-Ig binding protein (bispecific antibody, human IgG1, kappa, L234A L235A)
heavy: EVQLVQSGAEVKKPGASVKVSCKASGYTFANYGIIWVRQAPGQGLEWMGWINTYTGKPTYAQKFQGRVTMTTDTSTSTAYMELSSLRSEDTAVYYCARKLFTTMDVTDNAMDYWGQGTTVTVSSGGGGSGGGGSEVQLVQSGAEVKKPGSSVKVSCKASGYTFTDYEIHWVRQAPGQGLEWMGVNDPESGGTFYNQKFDGRVTLTADESTSTAYMELSSLRSEDTAVYYCTRYSKWDSFDGMDYWGQGTTVTVSSASTKGPSVFPLAPSSKSTSGGTAALGCLVKDYFPEPVTVSWNSGALTSGVHTFPAVLQSSGLYSLSSVVTVPSSSLGTQTYICNVNHKPSNTKVDKKVEPKSCDKTHTCPPCPAPEAAGGPSVFLFPPKPKDQLMISRTPEVTCVVVDVSHEDPEVKFNWYVDGVEVHNAKTKPREEQYNSTYRVVSVLTVLHQDWLNGKEYKCKVSNKALPAPIEKTISKAKGQPREPQVYTLPPSREEMTKNQVSLTCLVKGFYPSDIAVEWESNGQPENNYKTTPPVLDSDGSFFLYSKLTVDKSRWQQGNVFSCSVLHEALHNHYTQKSLSLSPGK
light: DIQMTQSPSSLSASVGDRVTITCRASQDISQYLNWYQQKPGKAPKLLIYYTSRLQSGVPSRFSGSGSGTDFTLTISSLQPEDFATYFCQQGNTWPPTFGQGTKLEIKRGGSGGGGSGDIQMTQSPSSLSASVGDRVTITCRASSGIISYIDWFQQKPGKAPKRLIYATFDLASGVPSRFSGSGSGTDYTLTISSLQPEDFATYYCRQVGSYPETFGQGTKLEIKRTVAAPSVFIFPPSDEQLKSGTASVVCLLNNFYPREAKVQWKVDNALQSGNSQESVTEQDSKDSTYSLSSTLTLSKADYEKHKVYACEVTHQGLSSPVTKSFNRGEC
modifications: N-linked glycans on the heavy chain at the asparagine commonly modified on IgG1 antibodies (fucosylated biantennary oligosaccharides with 0, 1 or 2 galactose residues)
notes: It says the constant region carries L234A, L235A and also T250Q and M428L; also called Anti-IL-17/TNF DVD-Ig Protein
[1]
  binding result: no binding
[2]
  binding result: no binding
[3]
  binding result: no binding
[4]
  binding result: no binding
[5]
  binding result: no binding
[6]
  Kd: 0.0049 nM
  kon: 3.3e+06 M⁻¹ s⁻¹
[7]
  Kd: 0.003 nM
  koff: 3e-06 s⁻¹
  kon: 1.1e+06 M⁻¹ s⁻¹
[8]
  Kd: 0.014 nM
  koff: 4.8e-06 s⁻¹
  kon: 340000 M⁻¹ s⁻¹
[9]
  Kd: 0.024 nM
[10]
  Kd: 0.011 nM
[11]
  Kd: 0.072 nM
[12]
  Kd: < 0.035 nM
[13]
  Kd: 0.0049 nM
[14]
  Kd: 0.003 nM
